{
  "source": "paper PMC5134256",
  "about": "(Nature, 2016)",
  "target": "the molecule itself",
  "assay": "crystal structure",
  "data": [
    {"protein": "Cse2 subunit of E. coli Cascade, His6 tag cleaved (natural protein, E. coli K12, UniProt P76632 1-160, looked up) MADEIDAMALYRAWQQLDNGSCAQIRRVSEPDELRDIPAFYRLVQPFGWENPRHQQALLRMVFCLSAGKNVIRHQDKKSEQTTGISLGRALANSGRINERRIFQLIRADRTADMVQLRRLLTHAEPVLDWPLMARMLTWWGKRERQQLLEDFVLTTNKNA", "values": [
      {"measurement": "stoichiometry N", "value": 2}
    ]}
  ]
}
